Measurements: the domain aggregation screens of Martell et al. (2025)

Assay: soluble fraction after stress (log2 fold change); higher = more stays soluble; pooled small domains, quantitative proteomics
Conditions: stress: 50 degC
In short: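 Pooled custom libraries of small protein domains were measured in a high-throughput format, with quantitative proteomics as the read-out. Each library was stressed at 50°C. Aggregation propensity is given as the base-two logarithm of the fold change in how much of each protein stays soluble after the stress. Higher values mean a larger share of the protein remains in solution.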

| Sequence | soluble fraction (log2) |
| --- | --- |
| HMANAGKFDSDMGEKINFPGNRVSLTPSELEAARELAAIMGDRFFSQLIPTTSKVTVTEMLQSLK | 0.3 |
| HMANGTVKWFNTTKGFGFIAPETGGKDVFVHISAVERSGLTGLADDQKVTFDVEAGRDGRESAVNLAL | 0.0396 |
| HMANKTVPNVSGKTVAEARAIIENQSLQVGEEKEEYSDSVAEGYIIRTNPTAGSQKKEQSKIDLVVSKG | 0.203 |
| HMANLDSLIKKVGQYAKDKQSISVDGIKKDLSIDKDMVKEALAELLKIGVVDKPDEAGQYKVIM | 0.299 |
| HMANPMFAEIKKVQKQLNEMGYQAGPADGLWGNKTENAVKLLLSDNNLKWDGTFDQNEIKIIEEIFLSND | -0.256 |
| HMANPRLEYFLSNITPDWNEFSPELKNQLLIENADPYKLEQYILQVSPDMYIEEQNAPGTVRQMAGDITG | 0.09 |
| HMANSANARKSLVSKLIAGGKIASQSDLVKALKKQGIVVTQGTASRDLEDIGAIRVRNSEGEIVYALT | 0.081 |
| HMANSDEEVLNKISTKAPTFNELINKIKEFDDTKEINDIWLDVYRYYITDEEYKEIAKKVITGLTYTNQ | -0.177 |
| HMANSLLVTAQAGGQKLFNFLKRSLHAENNEIHRWIRTGQVRINKKRTKAFDIVHENDEIRIPPFALNR | -0.284 |
| HMANSREIPKLAGIEQEEAVKQLLDLDLKPVIEEITDDDTDAGDVVRTDPAAGEHVAVDTEITVFISIG | -0.421 |
| HMANVQLAKNLKTLRKKYNYTQQDVSTFLNITRQAYSHYEQALREPDLNTLVHLSRFYQVTLDELI | -3.8 |
| HMANYHDIAADLRSKINHGFYEEEKKLPKQSELAADYQTSRVTIQKALNILQMEGIIYGKKGTGTFIRDSY | -0.214 |
| HMANYTVNAYNNGGTGGSVNMRSGPSTNDGIVVRVPHGATVTGTKSGTWSYMTYNTYTGYMMSVYLDEQS | -0.157 |
| HMAPAPYLVKVTANKLNIRSGPGTNYKIQGAITDKGTYTIVDTQGRWGKLKSGAGWIYLNYTKK | -1.9 |
| HMAPASADQLIDQLNEKVKAKDDKGVAALLTAAQTKMAELAQKDPKEAQAYVAKLQQWMQSNSENIKAALK | 0.157 |
| HMAPAYELTEEETKIIEILKANENIDLNELKSQAALSGKKWDKSMKNLAKYNLTKVTVDGDAKTVAYLA | 0.0932 |
| HMAPELSGEKLWDAQDVAMFLRVKPTTVWSYVSRDGFPAPVSQAGRAGMWSEPLVVQWYLSRPG | -0.223 |
| HMAPEPFILSVDADGKYYIDDLEKTKQEILIYATALYQEKPTTDFLVRGDKSAAYNDVLQAMVVLKE | -0.0406 |
| HMAPETALQILEQIQINPKVTMTDLANLTGYSRRWVAQTMKQLQELNVIKRVGSTKTGYWEIIA | -0.138 |
| HMAPGSKAEIPEDLMKVINKDPKMKAFVATLNKANIMAISFRLSTAKKPETRERRFNLILETLKRGEKF | -3.18 |
| HMAPKVTLNETETAIFEKMQQEKQLLLSELRTHFDISNKLWDTSIKTLTKNQLLTVSKEADLLWIKL | -0.658 |
| HMAPLAVIFPEPWRGMIAPEKLEGLTQALSLNPRPGYQHDPTRRYGVSLDGLDVRFTIDGDTLTVVEVVT | -0.635 |
| HMAPNKLQQQEVWTKALPLLQQMIMTIRQIDAAGGDSSPERELLEETAARFDETLDVERFLP | -0.308 |
| HMAPPPLAGAREALREQIRRGSLSARRGFDAYADALGLPAGTRGAHPIFAALQRLDYPQALRLLDQEPT | 0.0894 |
| HMAPQVKIPNLVDVSQRQAEAILNSYGLKVGHLIYKPDLAKDAVLGFMFNGRSLKAGDELAKGSSIDLILG | -0.097 |
| HMAPRDKADKYVAAGIAEELVPILQKVGYYLVTDLKDVKAQKIQQQIGEIIKKYKLDIEKPSVQDIEGWN | 0.0612 |
| HMAQDIEQLEKAVSFYTRMDPAAAALSITNLDQKTAVNILMRMKDKQASAVLESMTAERSSELIDSIARK | 0.00388 |
